{
  "source": "patent US20200024370A1",
  "target": "NpuN (cysteine-free, C.F.), N-terminal Npu DnaE intein segment with His tag and three C-terminal cysteines, coupled to SulfoLink resin (Nostoc punctiforme)",
  "assay": "cell-based or functional assay",
  "data": [
    {"substance": "NpuC^HN-SK^C, C-terminal intein segment with serine to histidine mutation fused to streptokinase with cysteine as +1 residue (from UniProt P00779 27-440)", "values": [
      {"measurement": "cleaving percentage (C-terminal cleavage, SDS-PAGE), in solution, room temperature, pH 8.5, 1 hour", "result": "> 50", "unit": "%"}
    ]}
  ]
}
